{
  "source": "patent US11203743B2",
  "about": "“Method for producing long-chain glycosylated genistein” (Jiangnan University, priority 2019, dated 2021)",
  "key": {"[1]": {"settings": "relative to genistein; cited from earlier work"}, "[2]": {"assay": "Specificity of different cyclodextrin glucosyltransferases to glycosylated genistein products (maltodextrin donor, genistein receptor, HPLC)", "type": "biochemical", "procedure": "Genistein (purchased from Sigma) was dissolved in dimethyl sulfoxide (DMSO) to prepare a genistein solution with a final concentration of 7.5 g/L; maltodextrin (purchased from Shanghai Sangon Biotech Co., Ltd.) was dissolved in a PBS buffer (50 mM, pH 6.5) to prepare a maltodextrin solution with a final concentration of 40 g/L; the freeze-fried pure enzymes of the mutants A156V/L174P, A156V/L174P/166Y, A156V/L174P/A166V, A156V/L174P/A166G, A156V/L174P/A166K, A156S, A156L and L174M obtained in Example 1 were dissolved in a PBS buffer (50 mM, pH 6.5) separately to prepare a CGTase enzyme solution with a final concentration of 15 U/L; 300 μL of the genistein solution, 500 μL of the maltodextrin solution and 200 μL of the CGTase enzyme solution were taken separately, mixed in a 2 mL vial with a lid and placed in a shaker for slow shaking at 40° C. and 120 rpm for 20-24 hours to obtain a reaction solution.\nThe molar content of short-chain glycosylated genistein (here the short-chain glycosylated genistein was a mixture of monoglycosylated genistein, diglycosylated genistein and triglycosylated genistein) and long-chain glycosylated genistein (here the long-chain glycosylated genistein was a mixture of tetraglycosylated genistein, pentaglycosylated genistein and hexaglycosylated genistein) in the reaction solution was detected by HPLC, the ratio (%) of the molar content of short-chain glycosylated genistein and long-chain glycosylated genistein in the reaction solution to the molar content of total glycosylated genistein in the reaction solution and the content (g/L) of short-chain glycosylated genistein and long-chain glycosylated genistein in the reaction solution were calculated, and detection results were shown in Tables 1 to 2. A method for detecting the ratio (%) of the content of short-chain glycosylated genistein and long-chain glycosylated genistein in the reaction solution to the content of total glycosylated genistein in the reaction solution by HPLC included that the reaction solution was filtered through a 0.22 μm filter membrane, and an Amethyst C18-H column (4.6*250 mm, Sepax, America) was used for detection (see Table 3 for specific detection conditions). The content of long-chain glycosylated genistein=the molar content of hexaglycosylated genistein*the molecular weight of hexaglycosylated genistein+ the molar content of pentaglycosylated genistein*the molecular weight of pentaglycosylated genistein+ the molar content of tetraglycosylated genistein*the molecular weight of tetraglycosylated genistein, and the content of short-chain glycosylated genistein=the molar content of triglycosylated genistein*the molecular weight of triglycosylated genistein+ the molar content of diglycosylated genistein*the molecular weight of diglycosylated genistein+ the molar content of monoglycosylated genistein*the molecular weight of monoglycosylated genistein."}, "[3]": {"assay": "Effect of reaction temperature on the yield of long-chain glycosylated genistein", "type": "biochemical", "procedure": "On the basis of Example 2, the mutant A156V/L174P/A166Y with the highest specificity to long-chain glycosylated genistein products was selected, and the reaction temperature was changed into 30° C., 35° C., 40° C., 45° C., 50° C., 55° C. and 60° C. separately.\n(§1) With reference to Example 2, the molar content of short-chain glycosylated genistein (here the short-chain glycosylated genistein was a mixture of monoglycosylated genistein, diglycosylated genistein and triglycosylated genistein) and long-chain glycosylated genistein (here the long-chain glycosylated genistein was a mixture of tetraglycosylated genistein, pentaglycosylated genistein and hexaglycosylated genistein) in a reaction solution was detected by HPLC, the ratio (%) of the molar content of short-chain glycosylated genistein and long-chain glycosylated genistein in the reaction solution to the molar content of total glycosylated genistein in the reaction solution and the content (g/L) of short-chain glycosylated genistein and long-chain glycosylated genistein in the reaction solution were calculated, and detection results were shown in Table 4 and FIG. 1."}, "[4]": {"assay": "Effect of reaction pH on the yield of long-chain glycosylated genistein", "type": "biochemical", "procedure": "On the basis of Example 2, the mutant A156V/L174P/A166Y with the highest specificity to long-chain glycosylated genistein products was selected, the reaction temperature was controlled to be 50° C., and the reaction pH was changed into 4, 5, 6, 7 and 8 separately.\nas §1, with “5” for “4”, “2.” for “1.”"}, "[5]": {"settings": "40° C., pH 6.5, 120 rpm, 20-24 hours"}},
  "data": [
    {"molecule": "genistein diglucoside", "values": [
      {"measurement": "solubility in water, times higher than that of genistein", "setting": "[1]", "result": "3,700 times"}
    ]},
    {"molecule": "genistein triglucoside", "values": [
      {"measurement": "solubility in water, times higher than that of genistein", "setting": "[1]", "result": "44,000 times"}
    ]},
    {"molecule": "A156V/L174P/A166Y: cyclodextrin glucosyltransferase mutant: A156V, L174P and alanine 166 into tyrosine of SEQ ID NO: 1 (protein, Translated from synthetic DNA) SPDTSVDNKVNFSTDVIYQIVTDRFADGDRTNNPAGDAFSGDRSNLKLYFGGDWQGIIDKINDGYLTGMGVTALWISQPVENITSVIKYSGVNNTSYHGYWARDFKQTNDAFGDFADFQNLIDTAHAHNIKVVIDFAPNHTSPADRDNPGFAENGVLYDNGSLLGYYSNDTAGPFHHNGGTDFSTIEDGIYKNLYDLADINHNNNAMDAYFKSAIDLWLGMGVDGIRFDAVKHMPFGWQKSFVSSIYGGDHPVFTFGEWYLGADQTDGDNIKFANESGMNLLDFEYAQEVREVFRDKTETMKDLYEVLASTESQYDYINNMVTFIDNHDMDRFQVAGSGTRATEQALALTLTSRGVPAIYYGTEQYMTGDGDPNNRAMMTSFNTGTTAYKVIQALAPLRKSNPAIAYGTTTERWVNNDVLIIERKFGSSAALVAINRNSSAAYPISGLLSSLPAGTYSDVLNGLLNGNSITVGSGGAVTNFTLAAGGTAVWQYTAPETSPAIGNVGPTMGQPGNIVTIDGRGFGGTAGTVYFGTTAVTGSGIVSWEDTQIKAVIPKVAAGKTGVSVKTSSGTASNTFKSFNVLTGDQVTVRFLVNQANTNYGTNVYLVGNAAELGSWDPNKAIGPMYNQVIAKYPSWYYDVSVPAGTKLDFKFIKKGGGTVTWEGGGNHTYTTPASGVGTVTVDWQN", "values": [
      {"measurement": "content of long-chain glycosylated genistein in the reaction solution", "setting": "[2]; [5]", "result": 8.5, "unit": "g/L"},
      {"measurement": "content of short-chain glycosylated genistein in the reaction solution", "setting": "[2]; [5]", "result": 8.0, "unit": "g/L"},
      {"measurement": "ratio of the molar content of long-chain glycosylated genistein to the molar content of total glycosylated genistein in the reaction solution", "setting": "[2]; [5]", "result": 40, "unit": "%"},
      {"measurement": "ratio of the molar content of short-chain glycosylated genistein to the molar content of total glycosylated genistein in the reaction solution", "setting": "[2]; [5]", "result": 60, "unit": "%"},
      {"measurement": "specificity to long-chain glycosylated genistein products in comparison with wild type", "setting": "[2]; in words, from Tables 1 to 2", "result": "significantly improved"},
      {"measurement": "increase of the yield of long-chain glycosylated genistein compared with wild-type cyclodextrin glucosyltransferase", "setting": "[2]; versus wild type", "result": 165, "unit": "%"},
      {"measurement": "content of long-chain glycosylated genistein in the reaction solution", "setting": "[3]; 30° C.", "result": 6.8, "unit": "g/L"},
      {"measurement": "content of short-chain glycosylated genistein in the reaction solution", "setting": "[3]; 30° C.", "result": 8.9, "unit": "g/L"},
      {"measurement": "content of long-chain glycosylated genistein in the reaction solution", "setting": "[3]; 35° C.", "result": 7.6, "unit": "g/L"},
      {"measurement": "content of short-chain glycosylated genistein in the reaction solution", "setting": "[3]; 35° C.", "result": 8.5, "unit": "g/L"},
      {"measurement": "content of long-chain glycosylated genistein in the reaction solution", "setting": "[3]; 40° C.", "result": 8.4, "unit": "g/L"},
      {"measurement": "content of short-chain glycosylated genistein in the reaction solution", "setting": "[3]; 40° C.", "result": 8.0, "unit": "g/L"},
      {"measurement": "increase of the yield of long-chain glycosylated genistein in comparison with 40° C.", "setting": "[3]; 45-50° C. versus 40° C.", "result": "21.4-23.8%"},
      {"measurement": "content of long-chain glycosylated genistein in the reaction solution", "setting": "[3]; 45° C.", "result": 10.1, "unit": "g/L"},
      {"measurement": "content of short-chain glycosylated genistein in the reaction solution", "setting": "[3]; 45° C.", "result": 6.8, "unit": "g/L"},
      {"measurement": "content of long-chain glycosylated genistein in the reaction solution", "setting": "[3]; 50° C.", "result": 10.0, "unit": "g/L"},
      {"measurement": "content of short-chain glycosylated genistein in the reaction solution", "setting": "[3]; 50° C.", "result": 6.6, "unit": "g/L"},
      {"measurement": "content of long-chain glycosylated genistein in the reaction solution", "setting": "[3]; 55° C.", "result": 8.9, "unit": "g/L"},
      {"measurement": "content of short-chain glycosylated genistein in the reaction solution", "setting": "[3]; 55° C.", "result": 5.6, "unit": "g/L"},
      {"measurement": "content of long-chain glycosylated genistein in the reaction solution", "setting": "[3]; 60° C.", "result": 5.7, "unit": "g/L"},
      {"measurement": "content of short-chain glycosylated genistein in the reaction solution", "setting": "[3]; 60° C.", "result": 3.6, "unit": "g/L"},
      {"measurement": "ratio of the molar content of long-chain glycosylated genistein to the molar content of total glycosylated genistein in the reaction solution", "setting": "[3]; FIG. 1, highest value reached with rising temperature", "result": 49, "unit": "%"},
      {"measurement": "increase of the ratio of long-chain to total glycosylated genistein in comparison with 40° C.", "setting": "[3]; FIG. 1, versus 40° C.", "result": 21, "unit": "%"},
      {"measurement": "yield of long-chain glycosylated genistein", "setting": "[3]; temperature 45-50° C. (highest)", "result": "10.2 to 10.4", "unit": "g/L"},
      {"measurement": "ratio of the molar content of long-chain glycosylated genistein to the molar content of total glycosylated genistein in the reaction solution", "setting": "[4]; FIG. 2, pH 4 (highest)", "result": 70, "unit": "%"},
      {"measurement": "increase of the ratio of long-chain to total glycosylated genistein in comparison with pH 6.5", "setting": "[4]; FIG. 2, pH 4 versus pH 6.5", "result": 30, "unit": "%"},
      {"measurement": "content of long-chain glycosylated genistein in the reaction solution", "setting": "[4]; pH 4, 50° C.", "result": 10.2, "unit": "g/L"},
      {"measurement": "content of short-chain glycosylated genistein in the reaction solution", "setting": "[4]; pH 4, 50° C.", "result": 2.6, "unit": "g/L"},
      {"measurement": "yield of long-chain glycosylated genistein", "setting": "[4]; pH 4 or 8 (highest), 50° C.", "result": "10.2 to 10.3", "unit": "g/L"},
      {"measurement": "increase of the yield of long-chain glycosylated genistein in comparison with pH 6.5", "setting": "[4]; pH 4 or 8 versus pH 6.5", "result": 20, "unit": "%"},
      {"measurement": "content of long-chain glycosylated genistein in the reaction solution", "setting": "[4]; pH 5, 50° C.", "result": 7.2, "unit": "g/L"},
      {"measurement": "content of short-chain glycosylated genistein in the reaction solution", "setting": "[4]; pH 5, 50° C.", "result": 8.8, "unit": "g/L"},
      {"measurement": "content of long-chain glycosylated genistein in the reaction solution", "setting": "[4]; pH 6, 50° C.", "result": 8.5, "unit": "g/L"},
      {"measurement": "content of short-chain glycosylated genistein in the reaction solution", "setting": "[4]; pH 6, 50° C.", "result": 8.0, "unit": "g/L"},
      {"measurement": "content of long-chain glycosylated genistein in the reaction solution", "setting": "[4]; pH 7, 50° C.", "result": 9.7, "unit": "g/L"},
      {"measurement": "content of short-chain glycosylated genistein in the reaction solution", "setting": "[4]; pH 7, 50° C.", "result": 5.5, "unit": "g/L"},
      {"measurement": "content of long-chain glycosylated genistein in the reaction solution", "setting": "[4]; pH 8, 50° C.", "result": 10.3, "unit": "g/L"},
      {"measurement": "content of short-chain glycosylated genistein in the reaction solution", "setting": "[4]; pH 8, 50° C.", "result": 3.6, "unit": "g/L"}
    ]}
  ]
}
